In this test the target is T1, mmLRRC8A with C-terminal EGFP and HA-tag (Mus musculus), Q80WG5.
T1 chain: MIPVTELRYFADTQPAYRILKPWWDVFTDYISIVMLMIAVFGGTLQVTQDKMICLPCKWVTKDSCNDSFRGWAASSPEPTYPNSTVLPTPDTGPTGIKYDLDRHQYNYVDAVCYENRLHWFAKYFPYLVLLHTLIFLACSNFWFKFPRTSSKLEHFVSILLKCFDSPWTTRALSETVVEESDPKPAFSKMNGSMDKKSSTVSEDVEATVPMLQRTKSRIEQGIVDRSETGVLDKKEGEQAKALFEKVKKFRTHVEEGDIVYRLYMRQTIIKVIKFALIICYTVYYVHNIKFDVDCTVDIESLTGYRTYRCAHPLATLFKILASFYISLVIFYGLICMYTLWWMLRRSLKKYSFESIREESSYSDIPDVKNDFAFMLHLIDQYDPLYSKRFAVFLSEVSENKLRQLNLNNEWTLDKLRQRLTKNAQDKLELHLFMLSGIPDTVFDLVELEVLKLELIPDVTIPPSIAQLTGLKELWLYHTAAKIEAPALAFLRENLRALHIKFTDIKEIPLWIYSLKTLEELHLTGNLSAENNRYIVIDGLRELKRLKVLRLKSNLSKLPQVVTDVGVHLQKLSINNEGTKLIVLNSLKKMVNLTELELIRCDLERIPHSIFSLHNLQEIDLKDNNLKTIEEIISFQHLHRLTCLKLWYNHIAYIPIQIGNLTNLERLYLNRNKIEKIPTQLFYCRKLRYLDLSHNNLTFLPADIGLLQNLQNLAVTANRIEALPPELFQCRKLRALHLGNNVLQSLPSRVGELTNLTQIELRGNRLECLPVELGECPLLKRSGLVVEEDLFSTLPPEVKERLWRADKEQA
Put plainly: single molecule pulldown with stepwise photobleaching subunit counting. Particulars: remark: other sources report otherwise.

B1: mmLRRC8A with C-terminal EGFP and HA-tag, Q80WG5 1-810 (natural protein)
chain: MIPVTELRYFADTQPAYRILKPWWDVFTDYISIVMLMIAVFGGTLQVTQDKMICLPCKWVTKDSCNDSFRGWAASSPEPTYPNSTVLPTPDTGPTGIKYDLDRHQYNYVDAVCYENRLHWFAKYFPYLVLLHTLIFLACSNFWFKFPRTSSKLEHFVSILLKCFDSPWTTRALSETVVEESDPKPAFSKMNGSMDKKSSTVSEDVEATVPMLQRTKSRIEQGIVDRSETGVLDKKEGEQAKALFEKVKKFRTHVEEGDIVYRLYMRQTIIKVIKFALIICYTVYYVHNIKFDVDCTVDIESLTGYRTYRCAHPLATLFKILASFYISLVIFYGLICMYTLWWMLRRSLKKYSFESIREESSYSDIPDVKNDFAFMLHLIDQYDPLYSKRFAVFLSEVSENKLRQLNLNNEWTLDKLRQRLTKNAQDKLELHLFMLSGIPDTVFDLVELEVLKLELIPDVTIPPSIAQLTGLKELWLYHTAAKIEAPALAFLRENLRALHIKFTDIKEIPLWIYSLKTLEELHLTGNLSAENNRYIVIDGLRELKRLKVLRLKSNLSKLPQVVTDVGVHLQKLSINNEGTKLIVLNSLKKMVNLTELELIRCDLERIPHSIFSLHNLQEIDLKDNNLKTIEEIISFQHLHRLTCLKLWYNHIAYIPIQIGNLTNLERLYLNRNKIEKIPTQLFYCRKLRYLDLSHNNLTFLPADIGLLQNLQNLAVTANRIEALPPELFQCRKLRALHLGNNVLQSLPSRVGELTNLTQIELRGNRLECLPVELGECPLLKRSGLVVEEDLFSTLPPEVKERLWRADKEQA
As a reminder, the stoichiometry N is the number of molecules, sites or subunits per partner or assembly. B1: the stoichiometry N came out at 6.

The values are drawn from publication doi:10.1101/2022.07.31.502239.
